How the values were obtained:
[1] = molecular target: HSV-1 gB-Sm (herpes simplex virus 1 (strain KOS)) (UniProt P06437); assay: split reporter
[2] = molecular target: HSV-1 gD-Sm (herpes simplex virus 1 (strain KOS)) (UniProt Q69091); assay: split reporter
UniProt Q69091, sequence (Q69091 26-394): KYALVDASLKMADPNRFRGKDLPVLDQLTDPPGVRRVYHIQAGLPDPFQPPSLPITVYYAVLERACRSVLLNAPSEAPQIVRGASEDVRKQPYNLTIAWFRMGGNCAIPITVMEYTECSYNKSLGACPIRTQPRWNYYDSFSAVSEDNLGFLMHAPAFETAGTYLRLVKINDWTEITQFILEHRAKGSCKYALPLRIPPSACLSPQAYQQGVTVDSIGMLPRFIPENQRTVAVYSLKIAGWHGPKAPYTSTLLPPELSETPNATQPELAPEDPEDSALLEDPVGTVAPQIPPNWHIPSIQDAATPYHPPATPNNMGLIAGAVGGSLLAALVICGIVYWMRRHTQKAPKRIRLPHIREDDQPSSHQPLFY

## HSV-1 gH-Lg expressed without gL (from UniProt P06477 19-838) (natural protein)
[1]
  fold reduction of the NanoBiT interaction in the absence of gL against gH/gL: 2 fold
[2]
  fold reduction of the NanoBiT interaction in the absence of gL against gH/gL: 6 fold

Source: publication doi:10.1101/2022.05.07.491029
